± gives the standard deviation of the averaged measurements.
The sequences below were run on Saccharomyces cerevisiae (assay: protein stability index of tFT-peptide fusion (C-terminal peptide) (PSI (0-1 scale)); higher = more stable (slower turnover)). Conditions: genetic background: wild type; temperature: 30 C.
Description: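 Multiplexed protein stability (MPS) profiling in S. cerevisiae. Random 12-aa peptides (tFT-X12 library) are fused to the C-terminus of a sfGFP-mCherry tandem fluorescent timer, after mCherry and a GGGS linker. Cells are FACS-sorted into 8 mCherry/sfGFP bins and deep-sequenced. The protein stability index (PSI) is the read-weighted bin average, scaled from 0 (unstable) to 1 (stable). Only peptides with >10 reads are reported; cells were grown at 30 °C in SC-His with glucose.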
Work on GPSPLTMPGSPS yielded a protein stability index of 0.683 ± 0.064.
With GPSRKCPFDVVS the protein stability index was 0.6654 ± 0.0021.
GPTGPATQNDDS was tested, and the protein stability index was 0.671 ± 0.018.
In the case of GPVLAVTRIVCK, the protein stability index is reported as 0.552 ± 0.0096.
GPYPPFSPPPLS showed a protein stability index of 0.697 ± 0.072.
For GQGACWLCVGGR, the protein stability index was 0.685 ± 0.02.
Sequence GQKKGRGGEREE has a protein stability index of 0.676 ± 0.03.
GQLGGRGNRRVA showed a protein stability index of 0.718 ± 0.041.
In the case of GQQILGGRSLEG, the protein stability index is reported as 0.63 ± 0.035.
GQQVDKMLWDEV gave a protein stability index of 0.715 ± 0.025.
Work on GQVAKVKVRKKK yielded a protein stability index of 0.755 ± 0.052.
GRCFGGVVRGAL was tested, and the protein stability index was 0.655 ± 0.051.
For GRCVCVLFWHVS, the protein stability index was 0.571 ± 0.0078.
In the case of GRDCSSHFIVPL, the protein stability index is reported as 0.713 ± 0.029.
GRDGQTLYLVLL gave a protein stability index of 0.686 ± 0.03.
GREGELDKKKWH was tested, and the protein stability index was 0.723 ± 0.051.
GREGKEKKKPRR gave a protein stability index of 0.696 ± 0.097.
With GREGKHLGAPPS the protein stability index was 0.68 ± 0.032.
In the case of GREGQGRGGQQG, the protein stability index is reported as 0.629 ± 0.05.
GRERGTEKGESG showed a protein stability index of 0.631 ± 0.11.
GRERMVVVSCGS gave a protein stability index of 0.629 ± 0.043.
GRGDNRKVDGEG showed a protein stability index of 0.671 ± 0.061.
Work on GRGGGGGRDREA yielded a protein stability index of 0.703 ± 0.076.
GRGGGRGVGVVG showed a protein stability index of 0.6345 ± 0.0028.
For GRGGLGGGEWDR, the protein stability index was 0.711 ± 0.0028.
For GRGGPSGAKAHR, the protein stability index was 0.684 ± 0.026.
GRGGTYVVLWGV showed a protein stability index of 0.661 ± 0.1.
In the case of GRGKGNEREVRT, the protein stability index is reported as 0.656 ± 0.022.
GRGLGRVMRGRV was tested, and the protein stability index was 0.6182 ± 0.0059.
With GRGLSSLCRRFS the protein stability index was 0.691 ± 0.044.
In the case of GRGRDDKTYKKT, the protein stability index is reported as 0.669 ± 0.031.
Sequence GRGRGEVMNGRG has a protein stability index of 0.574 ± 0.0044.
In the case of GRGRLLYWEKWL, the protein stability index is reported as 0.66 ± 0.03.
For GRIRGCSPFPLW, the protein stability index was 0.63 ± 0.094.
Work on GRKCWDRSGWTV yielded a protein stability index of 0.771 ± 0.014.
GRKIIIRKNKIK gave a protein stability index of 0.613 ± 0.05.
GRKKKINDDKKN gave a protein stability index of 0.688 ± 0.071.
Work on GRLGCAVCGSRG yielded a protein stability index of 0.708 ± 0.041.
For GRLLRVSCHGVS, the protein stability index was 0.701 ± 0.019.
GRNFSHKKRGKY was tested, and the protein stability index was 0.685 ± 0.03.
GRPRPRSGWILL gave a protein stability index of 0.672 ± 0.067.
Work on GRQLNDSISTLK yielded a protein stability index of 0.642 ± 0.015.
With GRQVTSTLTKLL the protein stability index was 0.617 ± 0.18.
GRRCKNMKKMSW gave a protein stability index of 0.674 ± 0.046.
Sequence GRRGRWCAGQWG has a protein stability index of 0.6743 ± 0.0062.
GRRLGREWGDAP was tested, and the protein stability index was 0.721 ± 0.12.
For GRRNGLCENPRG, the protein stability index was 0.657 ± 0.0077.
In the case of GRRPPWRFSFPF, the protein stability index is reported as 0.769 ± 0.063.
GRRRDREAVVPW showed a protein stability index of 0.732 ± 0.032.
GRRRGWAWGVWG gave a protein stability index of 0.683 ± 0.0084.
In the case of GRRVPGPLRSSE, the protein stability index is reported as 0.709 ± 0.085.
In the case of GRSVSGYGSFID, the protein stability index is reported as 0.686 ± 0.017.
For GRVAMAVSGGVG, the protein stability index was 0.638 ± 0.023.
For GRVGFGSGAWLR, the protein stability index was 0.669 ± 0.0021.
Sequence GRVGGRAGGRGR has a protein stability index of 0.691 ± 0.039.
With GRVGGRSGGRGR the protein stability index was 0.68 ± 0.013.
GRVGSLCGWLWR showed a protein stability index of 0.722 ± 0.02.
Work on GRVRARGRRGKG yielded a protein stability index of 0.625 ± 0.058.
GRVRFVCVGLGG gave a protein stability index of 0.639 ± 0.047.
With GRWRIVSLEELQ the protein stability index was 0.724 ± 0.035.
Sequence GRYLGARRGRAF has a protein stability index of 0.68 ± 0.078.
GRYSECCSGGGG gave a protein stability index of 0.674 ± 0.015.
In the case of GSCGCLSVVSGR, the protein stability index is reported as 0.713 ± 0.044.
With GSCGWCGVARWG the protein stability index was 0.762 ± 0.05.
GSERGGRSRGRG showed a protein stability index of 0.665 ± 0.0059.
Sequence GSFVEEVFRVKS has a protein stability index of 0.6646 ± 0.0061.
Work on GSGRNKGLWRIW yielded a protein stability index of 0.725 ± 0.04.
Sequence GSGSVWQGLGSG has a protein stability index of 0.711 ± 0.032.
Work on GSGTPRTPCLSH yielded a protein stability index of 0.642 ± 0.04.
With GSLASRGVFVVV the protein stability index was 0.614 ± 0.042.
GSNRLYRGVTIT was tested, and the protein stability index was 0.627 ± 0.0082.
GSNRTLSLYCVG gave a protein stability index of 0.633 ± 0.016.
GSPRFSNGCEYF gave a protein stability index of 0.59 ± 0.026.
Sequence GSREHYGLFLGH has a protein stability index of 0.673 ± 0.032.
Work on GSRSSDTGGRLM yielded a protein stability index of 0.6819 ± 0.00074.
For GSRVGRATGRRR, the protein stability index was 0.709 ± 0.014.
GSRWRISYQQVL was tested, and the protein stability index was 0.623 ± 0.037.
GSSGRFFHVVVF showed a protein stability index of 0.644 ± 0.074.
GSSPCHNEESGT gave a protein stability index of 0.693 ± 0.014.
GSVGWRGGEGRW gave a protein stability index of 0.59 ± 0.11.
Work on GSVLRCFFRKGS yielded a protein stability index of 0.6923 ± 0.0059.
For GSVYFDLLCVRP, the protein stability index was 0.729 ± 0.048.
GSWIGGSVIGGQ was tested, and the protein stability index was 0.763 ± 0.073.
GTASGGPKVSLF was tested, and the protein stability index was 0.656 ± 0.088.
With GTETKIRNKHVE the protein stability index was 0.645 ± 0.059.
GTGMMGFFWIVA was tested, and the protein stability index was 0.571 ± 0.069.
GTKGEGGGKGGV gave a protein stability index of 0.693 ± 0.038.
Sequence GTLDTDAGTINH has a protein stability index of 0.683 ± 0.025.
With GTPNLTEEPPHQ the protein stability index was 0.761 ± 0.034.
In the case of GTPPRSGLPLCT, the protein stability index is reported as 0.711 ± 0.0099.
With GTRAETQWSVGM the protein stability index was 0.682 ± 0.013.
GTRPSPPSRLVS gave a protein stability index of 0.677 ± 0.031.
GTVHQQGGPIDG showed a protein stability index of 0.676 ± 0.033.
GVAGRRRRAGAW gave a protein stability index of 0.7294 ± 0.002.
In the case of GVAVLAGWEVLG, the protein stability index is reported as 0.653 ± 0.021.
GVCGGGGGWGVA gave a protein stability index of 0.6826 ± 0.0019.
With GVCSRVFLGRVE the protein stability index was 0.6836 ± 0.0065.
GVDKQSGTRNIK showed a protein stability index of 0.704 ± 0.0068.

From the supplement of paper PMC10724198
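Also: PSI is a weighted mean of sequencing reads over stability bins, variants kept only with over 10 reads, mCherry proximal and sfGFP distal, peptide attached via GGGS linker.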
